# Values of other authors, collected in paper PMC8257665.
# Assays:
# Glu109 = Glu109 (UniProt position 109, PLLICEFYLIL); conditions: ground (dark) state GPR implied; not stated explicitly
# Glu143 = Glu143 (UniProt position 143, FGYMGEAGIMA); conditions: ground (dark) state GPR implied; not stated explicitly
substance,measurement,setting,value
Green-light absorbing proteorhodopsin (GPR) (uncultured marine gamma-proteobacterium (the article says only 'marine γ-proteobacteria')),pKa,Glu109,> 8.5
same,pKa,Glu143,> 9.0
